# Results reported in the DeepSol protein solubility set.
# Test: soluble on expression in E. coli; label from the status in PepcDB or PDB records
row,Sequence,soluble on expression in E. coli
1,MGSDKIHHHHHHMNDRFVCSLIEKSDLSNFVKKHSKNVFYDIAKAEAAVHQQTIDTIHFHEVGAIDSIVDIVGFFILWEQLEIEQVYSTPITDGSGTITIAHGVMPIPVPAVMELRKETNLIIQQDFEIKTELVTPTGLAIFKELSPLFVAPEQRLIEKIGYGFGKRETGKFNALRGSIFTETHSKKKRTEHHDQVLKIETNIDNQTPEQLGYVMDLLLEHGALDVFFTPIHMKKNRSAILLTVLTTTEEKEYFTELLFKHTSTIGMRFQTMERSVMDRSFKILETPFGKVHIKKNHYHGLLKESIEYQDCERIAKQYNFTIEEVYRLVQTLNNKTID,not soluble
2,MGSDKIHHHHHHMNEFIASIKSATASLHTQLEQSEISNVIMSQLVTEKAYAEYLSRIQCMHEDIEKHTFPIIHTIIKDTAQRTKSTAIAADLDQLKYASAVNKTFLDAAHSPDLNFNLGLMYVTEGSVLGGQVILKNIKKQLGEDIASRFLNVYGQQTGHLWRSFLIQLSEYQSTLSEKEKMTIIDGAKYGFERVYSILM,not soluble
3,MGSDKIHHHHHHMNERLRQGLVAAEGPLSGEVIKDVECVAGGCIHQAWCLQLKGGRQLFAKTGGADALPMLKVEVEGLKALKAWVDPGVLEVPEPLAFDQVCGEAVLLLPWLDFRAGNQASLGRGLALLHRASAAENPGRFGWPVDGFIGAGSQPGGWREQWGDAFVTLRLRPQLREAARWGLDLVDVEPILAALIPWLDRHQPSPSLVHGDLWSGNANVLSDGRGVLLDPATWWADREVDLAMTQLFGGFSQDFYIGYENVWPLPADASQRVEVYNLYHLINHANLFGGSYRNQSQAILNRLASWLLT,not soluble
4,MGSDKIHHHHHHMNFLDGHLFPENQQPLIITAAPYAPGWLPSDFPEDIPVTMEEQIQKAVDCYNAGATVLHLHVRELDGKGSKRLSKFNELVAGVRKAVPEMIIQVGGSISFAPENEGQAAKWLSDDTRHMLADLEPTPDQVTVTVNTSQMNVTDHAEDADFRGTSRENPAIFNAYKEMTVPAQPGWVEEHVRRLTAKGIQSAFQCYNTNSFESVERLMRRGFYKGPLVMNWVAIGGGMDTPNVYSLGNFMRGVPDGAVVTVESNVRNVLPVNMMGIAMGLHVRCGTEDVLWNQKRTAKMSTVKQIEQLVRISHEFGREIATAKEAREISKIGVFYDTVEESLQANGFAPNRNGGTQGYLRKTR,not soluble
5,MGSDKIHHHHHHMNGIGATPYSESQKFHIAAIILAAGFSLRMKSFKPLLPLGSASVIETAIQSFRKAGFMDIRVVLGHKAGELLPICDALGVQPILNEDYAEGMFSSVKAGVKSLGREVDGFFLLPADNPLIQADTLQRLYEGFNLGPGGIVYPVCQGKRGHPPLISRSYRDSILSWRGEGGLRALLEHYQADALEVGTEDQGVLLDMDTPEDYRTLLKHYGCAPTPTEFECYELLKGNNTPDQVIKHCETVARLSVFLGEQLSEAGLHLNRELLRTSALLHDIARLKPNHPQEGAKLTAAYPEVSAIIAAHMDCPWEPSQPLTEQEIVYLADKLVAKERIVSLQERFKGSVERHQNEPEVLEHVYRRFGQAYRIHDRVEEILGKSVQTLIKSNLGSDVHG,not soluble
6,MGSDKIHHHHHHMNHLVEVQHMERMNRTNHIQKLDKERYLNLKTGEIGEFKQGEVRSDSLNSLRQTFKKLRYLINTNYVGAGNELFITLTYKENMTDVKRLYSDFKKFMLKFRYKYEKQYGSIDYMTVVEPQERGAWHHHLLVRFNDMTGSKMYIPNNDVAALWGHGFTNMHSLNGVDNIGAYLSAYLADVELTTDNVFLAFDDNVEVVSKVVDGQEKKFIKGGRLHLYPSGMNLYRKSKGIKMPVREEMRYGDIKKVVGSEKPHYVKTLVVEQDDFKNTITYEQYNTKR,not soluble
7,MGSDKIHHHHHHMNIAILNHYASIPEVGSAETRHFELAKRFVREGHRVDIYIGDFSHLTGKRWSETFGWSFSKDGVDFIVVETREYTGNSLSRLLSSIDYYRNGRKKIIQKRYDVIIASSPHPFSWSLGWYYVRRKGGKFFIEIRDVWPDDLVKLGSLSYRHPVSKLFDHMCKKYYPKADGFISLVPDLSEHFNRLKVRPENFIYIPNGVDLKVFKDPEPCPVVDEVFSKVPDGKIKVVYAGSIVEHKGIKEFIETLSKVNKNLRDRFVFFFVGPSHADYLVSVKETAKDLQNVFFFDPVPKRCVPYLLQKADVLLFTLSQTVMDHPAVSSYKVVDYMASGKPVLCVDIENLPFKKTKGAVFFREDNLEEALRRIFEEDLSELGRRNREYVERERDWDRLYEKLRSFVLS,not soluble
8,MGSDKIHHHHHHMNIGLLEALDQLEEEKGISKEEVIPILEKALVSAYRKNFGNSKNVEVVIDRNTGNIKVYQLLEVVEEVEDPATQISLEEAKKIDPLAEVGSIVKKELNVKNFGRIAAQTAKQVLIQRIRELEKEKQFEKYSELKGTVTTAEVIRVMGEWADIRIGKLETRLPKKEWIPGEEIKAGDLVKVYIIDVVKTTKGPKILVSRRVPEFVIGLMKLEIPEVENGIVEIKAIAREPGVRTKVAVASNDPNVDPIGACIGEGGSRIAAILKELKGEKLDVLKWSDDPKQLIANALAPATVIEVEILDKENKAARVLVPPTQLSLAIGKGGQNARLAAKLTGWKIDIKPIMNL,not soluble
9,MGSDKIHHHHHHMNIKEKIAVQLYSVRKEMERDLEGTLRKMHEIGFRYVQLDGMRGNDPSEVRRLLQKYELKVIGMHIKHDRFMNDLDGIIEEAYFFDCKTVFDKYIEEEDQTTAGYTATKAALINAAEKLHPLGFRIGLHNPEYDFNECIHGRRVMDYITDPVDGICIYAEPDTYWIRAAGHDETEFIKRYSGRAPIVHMKDFLSGFELEDMDNNLVEIGQGEVDFRAIIEWGEANGVEYYCIEQDKSKRAMFETLEASYQYLLQL,not soluble
10,MGSDKIHHHHHHMNINQLKTFIVLADCLSVTETSKRLFCTQPAVSIKIRKLEETLNTVLFERINNRLYLTEQGKIFYSYAEQIISTLEMSVEHLHQYDDPNYGKIIIGASHFVGVYLLPQVIAEYRKLSPNVELRLEILSSQQLIQGLENHSIDFIIMSDQIYFDPQKYDVNRFLSDELILIVPPDHVLATYESCHFEQLCDELFIIKPKNSQTRKFLLQQFSKDQISLLKFMEINSLEGIKRCVMNGLGVSIISRFSVENELKMGMLKAVELDSFQFKRGINYIYHKEKCLSSAIGRFIGLLNILK,not soluble
11,MGSDKIHHHHHHMNIQQMKYVAAIANNGSFREAAKKLFITQPSLSNSIRELEEELGISLFLRTNKGAFLTEEGMVFLEQAEKVLVQMELLENRYRETVTSERFSISSQHYDFLGEVIAKVLKKYGDQYKDFRVFETTTLKVIEDVKGFHSELGIIYLNEQNSVSIERYLEQANLAYEVISTFNTHIFLGNHHPLAKQKEIHLEELVPYPQVRFNQEGSNFSYFSEDLVEIPEQESVIHTTDRGTLMNLLVETNAYASGSGVVTGFTKKEIRLVPLAPALENRICLLFPKNREISPIGRYFIKELKALFKKEVDTKTFSTKE,not soluble
12,MGSDKIHHHHHHMNISNSQVNRLRHFVRAGLRSLFRPEPQTAVEWADANYYLPKESAYQEGRWETLPFQRAIMNAMGSDYIREVNVVKSARVGYSKMLLGVYAYFIEHKQRNTLIPAGFVAVFNSDESSWHLVEDHRGKTVYDVASGDALFISELGPLPENVTWLSPEGEFQKWNGTAWVKDAEAEKLFRIREAEETKNSLMQVASEHIAPLQDAVDLEIATEEETSLLEAWKKYRVLLNRVDTSTAPDIEWPTNPVRE,not soluble
13,MGSDKIHHHHHHMNKINRVAIVGGTHGNEFTGAFLVKKFQQFPEVIQKPSFETLTILGNPKAFEAGKRYIEKDLNRCFLTESLQNTNLSSYEDIRAKQIAGVLGAENKPNVDVVIDLHSTTANMGLSIILGNQDPFLLKLCAYLSDINPLVKVCYTIPEKGSNFLRSLNKLGFVIEVGAVAQGVLNAELFQKTEQLIYTILDYLEQYNRGNIPKINNLLALYKFTGTVDYPRNENGDIQGMIHPDIQFRDYEPLNPGDPLFLTLDGKAIAYEGTSTVYPIFINEAAYYEKGIAMLFTEKQLINPSS,not soluble
